Assay results from article PMC5955915 (2018).

Target: BG505 SOSIP.664
Assay: BLI

Kd: 34.8 nM
koff: 0.00085 s⁻¹
B1: PGT122 Fab (Fab, V domains shown)
VH: QVHLQESGPGLVKPSETLSLTCNVSGTLVRDNYWSWIRQPLGKQPEWIGYVHDSGDTNYNPSLKSRVHLSLDKSKNLVSLRLTGVTAADSAIYYCATTKHGRRIYGVVAFKEWFTYFYMDVWGKGTSVTVSS
VL: APTFVSVAPGQTARITCGEESLGSRSVIWYQQRPGQAPSLIIYNNNDRPSGIPDRFSGSPGSTFGTTATLTITSVEAGDEADYYCHIWDSRRPTNWVFGEGTTLIVL
